14 sequences from the supplement of paper PMC9170038 can be followed below.

This data set has as its system MS2 coat protein. Description: apparent KD of MS2 coat protein; designed switch direction (-1 OFF switch, 1 ON switch): -1; higher = weaker reporter binding. In a few lines: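 Designed RNA switches with common flanks were transcribed on Illumina chips by stalled E. coli RNA polymerase and titrated with SNAP-549-labelled MS2 coat protein, from 0.7 or 1.5 nM doubling to 3 µM, in Tris-HCl pH 7.5 buffer with KCl, MgCl2, BSA, DTT, tRNA and Tween-20. Steps lasted 0.8–1.5 h (lowest) to 10–20 min (highest). Titrations ran without input, with 200 uM small-molecule ligand, or with an oligonucleotide input. Normalised cluster fluorescence was curve-fitted, and apparent KD is the per-design median over clusters.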

Where [1] appears, read: Eterna round: R95, input ligand: microRNA oligo, concentration not stated.
Where [2] appears, read: input ligand: microRNA oligo, concentration not stated.

Turning to “CACGUGAUUGGGCUCAUUAACAUGAGGAUCACCCAUGUGUGUGUUUUAGGAUGCCCACAAGCUUUUUCGCCGUCUAG [Eternabot (L1) Solution 3] (Eterna round: R97, puzzle: Sensor, turn-off variant 1)”, the “apparent KD of MS2 coat protein” value by setting is: (input ligand: FMN 200 uM) 51 nM; (input ligand: none) 64.8 nM.

Regarding “CAGCCCUGAGGAUAUCCAUCCUCGUACAUGAGGAUCACCCAUGUCUCCCUCUGGGCUUUCGGAGAAGGCAGGUAUC [Megrez-6.1] (Eterna round: R97, puzzle: Exclusion 5)”, the “apparent KD of MS2 coat protein” value (input ligand: FMN 200 uM) was 743 nM and the “apparent KD of MS2 coat protein” value (input ligand: none) was found to be 976 nM.

On to “CAGCCCUGAGGAUAUCCCUACUUGCACAUGAGGAUCACCCAUGUCCUCCUCCGGGCUUCGGGAGAAGGCAGGUCUC [Megrez-7.5] (Eterna round: R97, puzzle: Exclusion 5)”, for which the “apparent KD of MS2 coat protein” value runs as follows: (input ligand: FMN 200 uM) 23.8 nM; (input ligand: none) 17 nM.

As to “CAGCGAACAGGAUAUACAUGAGGAUCACCCAUGUGUUCCAGCUAGGAAACUAGCAAAUGUAGAAGGGUUCGCUG [Mat - Exclusion 3 - JL Mod - D2] (Eterna round: R97, puzzle: Exclusion 3)”, the “apparent KD of MS2 coat protein” value is 584 nM (input ligand: FMN 200 uM) and 324 nM (input ligand: none).

Regarding “CAGCUGAAAGUGAGGAUAUCUAGAGCCUCGGCUCUAGAGAAGGCACAUGAGGAUCACCCAUGUCUCAACAGCUG [BmEx4/1-A2] (Eterna round: R97, puzzle: Brourd's mod of Exclusion 4)”, the “apparent KD of MS2 coat protein” value (input ligand: FMN 200 uM) was 67.1 nM and the “apparent KD of MS2 coat protein” value (input ligand: none) was determined as 19.6 nM.

Consider “CAGUACUGAGGAUAUACAUGAGGAUCACCCAUGUGCUCGAAGUAGGAUACUACUAUUAGUAGAAGGCAGUACUG [Fiskers Ex 3 828 mod 22] (puzzle: Exclusion 3)”, for which, under setting [1], the “apparent KD of MS2 coat protein” value is 15.9 nM.

Take “CAGUACUGAGGAUAUACAUGAGGAUCACCCAUGUGCUUCAGCUAGGAUACUAGCAUUAGUAGAAGGCAGUACUG [Fiskers Ex 3 828 mod 13] (Eterna round: R96, puzzle: Exclusion 3)”: the “apparent KD of MS2 coat protein” value is, setting by setting: (input ligand: FMN 200 uM) 81 nM; under setting [2], 10.8 nM; (input ligand: none) 13.9 nM.

In the case of “CAGUACUGAGGAUAUACAUGAGGAUCACCCAUGUGCUUCAGCUAGGAUACUAGCAUUAGUAGAAGGCAGUACUG [Fiskers Ex 3 828 mod 13] (puzzle: Exclusion 3)”, under setting [1], the “apparent KD of MS2 coat protein” value was 11.3 nM.

Consider “CAGUACUGAGGAUAUACAUGAGGAUCACCCAUGUGCUUUAGCUAGGAUACUAGCACCAGUAGAAGGCAGUACUG [Fiskers Ex 3 828 mod 12] (puzzle: Exclusion 3)”, for which, under setting [1], the “apparent KD of MS2 coat protein” value turned out to be 10.7 nM.

For “CAGUACUGAGGAUAUACAUGAGGAUCACCCAUGUGUCCUAGCUAGGAAACUAGCAUUAGUAGAAGGCAGUACUG [Fiskers Ex 3 828 mod 6] (Eterna round: R96, puzzle: Exclusion 3)”, the “apparent KD of MS2 coat protein” value by setting is: (input ligand: FMN 200 uM) 225 nM; under setting [2], 16.9 nM; (input ligand: none) 19.5 nM.

“CAGUACUGAGGAUAUACAUGAGGAUCACCCAUGUGUCCUAGCUAGGAAACUAGCAUUAGUAGAAGGCAGUACUG [Fiskers Ex 3 828 mod 6] (puzzle: Exclusion 3)”: the “apparent KD of MS2 coat protein” value under setting [1] was 22.1 nM.

Take “CAGUACUGAGGAUAUACAUGAGGAUCACCCAUGUGUCUUAUAUUAGGAAACUAGGUAUGUAGAAGGCAGUACUG [Omei Ex3 Mod of Eli 4.27 v4] (Eterna round: R97, puzzle: Exclusion 3)”: the “apparent KD of MS2 coat protein” value reads like this: (input ligand: FMN 200 uM) 304 nM; (input ligand: none) 62.1 nM.

“CAGUACUGAGGAUAUACAUGAGGAUCACCCAUGUGUGUGAGAUUUGGAUGAAAGUUAUGUAGAAGGCGGUGCUG [JR_Ex3_Sub037] (Eterna round: R97, puzzle: Exclusion 3)”: the “apparent KD of MS2 coat protein” value by setting is: (input ligand: FMN 200 uM) 68.4 nM; (input ligand: none) 73.8 nM.

Take “CAGUACUGAGGAUAUACAUGAGGAUCACCCAUGUGUGUGCGUUUUGUAUGAAUGUUAUGUAGAAGGCGGUGCUG [JR_Ex3_Sub035] (Eterna round: R97, puzzle: Exclusion 3)”: the “apparent KD of MS2 coat protein” value runs as follows: (input ligand: FMN 200 uM) 201 nM; (input ligand: none) 39.1 nM.
